Test results from patent publication US20160326219A1, “OPTICALLY ACTIVATED RECEPTORS” (IST AUSTRIA (INSTITUTE OF SCIENCE AND TECHNOLOGY AUSTRIA), priority 2013, published 2016).
Read-outs that look alike come from different tables or passages of the source.

Assays:
MAPK pathway = test: Stimulation and detection of MAPK signaling, PathDetect Elk1 luciferase reporter (HEK293 cells); assay type: cell-based, human; conditions: for MAPK pathway activation in response to blue light: HEK293 cells expressing the fusion protein (LOV domain fused to RTK intracellular domain), ~3 μW/mm^2; for MAPK pathway activation in response to red light: HEK293 cells, PCB incubation, ~0.05 μW/mm^2
Method: For light stimulation of cells, an incubator (PT2499, ExoTerra/HAGEN, Holm, Germany) was equipped with 300 light emitting diodes (JS-FS505ORGB-W30 with JS-CON-004 controller, Komerci, Ebern, Germany; λmax˜630 nm (red), λmax˜530 nm (green), λmax˜470 nm (blue), bandwidth ˜±5 nm). Light intensity was controlled with an analog dimmer and measured with a digital power meter (PM120VA, Thorlabs, Munich, Germany). Intensities at maximal output were 2.3 (red), 2.6 (green) and 3.3 (blue light) W/m^2. For stimulation over extended time periods (>8 h), an aluminium box was equipped with the same light-emitting diodes and controller and placed in an incubator with standard tissue culture conditions (see below).
HEK293 cells and CHO-K1 (American Type Culture Collection (ATCC), Manassas, Va.) cells were maintained in DMEM supplemented with 10% FBS, 100 U/ml penicilin and 0.1 mg/ml streptomycin in a humidified incubator with 5% CO2 atmosphere. After trypsination, 5×10^4 cells were seeded in each well of 96-well plates (three to four wells for each construct) coated with poly-L-ornithine (Sigma, Vienna, Austria). Either transparent plates or black clear bottom plates were used. Cells were transfected using Lipofectamine 2000 (Invitrogen/LifeTech).
Phycocyanobilin (PCB; Livchem Logistics GmbH, Frankfurt a.M., Germany) was dissolved in a dark room to a stock concentration of 10 mM in DMSO. Aliquots were stored in the dark at −20° C. Prior to experiments, cells were incubated with 50 μM PCB overnight in reduced serum starve medium at 37° C. PCB could also be applied to applied to living animals as it is non-toxic even in high doses (0.17% of diet or 10 mg/kg) (McCarty (2007).
Activation of the MAPK pathway was assayed with the PathDetect Elk1 trans-Reporting System (Agilent) consisting of an Elk1 phosphorylation-dependent trans-activator and a luciferase-based trans-reporter. Cells were transfected with 213.3 ng total DNA per well (receptor, trans-activator and trans-reporter at ratio of 1:3:60 or 1:30:600) using Lipofectamine 2000. Six h after transfection medium was replaced with CO2-independent reduced serum starve medium (Gibco/Life Technologies; supplemented with 0.5% FBS, 2 mM L-Glutamine, 100 U/ml penicilin and 0.1 mg/ml streptomycin) for 18 h at 37° C. Cells were transferred and were either kept under constant illumination for 8 h or were protected from light. Chemical stimulation of imFGFR1 followed the same procedure, except that 10 nM AP20187 ((Clackson 1998); ARIAD Pharmaceuticals, Cambridge, Mass.) were added before transfer to the stimulation incubator. After incubation, plates were washed once with PBS and luciferase was detected with standard, off-the-shelf reagents. These were either Luciferase 1000 Assay System (Promega, Mannheim, Germany) in combination with a microplate reader equipped with an injector (Tecan Infinite 200 Pro, Maennedorf, Switzerland), or ONE-Glo Assay System (Promega) in combination with a microplate reader not equipped with an injector (BioTek Synergy H1). These assay systems provide equivalent results.

LOV domains = conditions: cited from earlier work

Molecule: imFGFR1: chemically-inducible mFGFR1 lacking ligand-binding modules, with a single FKBP domain, SEQ ID NO: 56 [reference compound]
- MAPK pathway activation in response to blue light (MAPK pathway): no effect

Molecule: rtrkB-SyCP1-PHY: chimeric receptor of rat trkB catalytic domain and SyCP1-PHY, SEQ ID NO: 67
- MAPK pathway activation in response to red light (MAPK pathway): activate the canonical MAPK pathway

B1: SyCP1-PHY: PHY domain of Synechocystis PCC6803 CPH1, residue 2 to 514 of Q55168, SEQ ID NO: 64 (protein)
chain: ATTVQLSDQSLRQLETLAIHTAHLIQPHGLVVVLQEPDLTISQISANCTGILGRSPEDLLGRTLGEVFDSFQIDPIQSRLTAGQISSLNPSKLWARVMGDDFVIFDGVFHRNSDGLLVCELEPAYTSDNLPFLGFYHMANAALNRLRQQANLRDFYDVIVEEVRRMTGFDRVMLYRFDENNHGDVIAEDKRDDMEPYLGLHYPESDIPQPARRLFIHNPIRVIPDVYGVAVPLTPAVNPSTNRAVDLTESILRSAYHCHLTYLKNMGVGASLTISLIKDGHLWGLIACHHQTPKVIPFELRKACEFFGRVVFSNISAQEDTETFDYRVQLAEHEAVLLDKMTTAADFVEGLTNHPDRLLGLTGSQGAAICFGEKLILVGETPDEKAVQYLLQWLENREVQDVFFTSSLSQIYPDAVNFKSVASGLLAIPIARHNFLLWFRPEVLQTVNWGGDPNHAYEATQEDGKIELHPRQSFDLWKEIVRLQSLPWQSVEIQSALALKKAIVNLILRQAEE
modifications: Synechocystis PCC6803
- Red light intensity at which activation is already achieved (MAPK pathway; red light): 5.8 μW/cm^2
- Red light intensity at which activation is already achieved, converted (MAPK pathway; red light, conversion of 5.8 μW/cm^2): 0.0058 mW/cm^2

B2: Opto-hRET: fusion of human RET catalytic domain and VfAU1-LOV, SEQ ID NO: 60 (protein)
chain: MGSSKSKPKDPSQRLDVTGHCYHKFAHKPPISSAEMTFRRPAQAFPVSYSSSSARRPSLDSMENQVSVDAFKILEDPKWEFPRKNLVLGKTLGEGEFGKVVKATAFHLKGRAGYTTVAVKMLKENASPSELRDLLSEFNVLKQVNHPHVIKLYGACSQDGPLLLIVEYAKYGSLRGFLRESRKVGPGYLGSGGSRNSSSLDHPDERALTMGDLISFAWQISQGMQYLAEMKLVHRDLAARNILVAEGRKMKISDFGLSRDVYEEDSYVKRSQGRIPVKWMAIESLFDHIYTTQSDVWSFGVLLWEIVTLGGNPYPGIPPERLFNLLKTGHRMERPDNCSEEMYRLMLQCWKQEPDKRPVFADISKDLEKMMVKRRDYLDLAASTPSDSLIYDDGLSEEETPLVDCNNAPLPRALPSTWIENKLYGRISHAFTRFTGGPDYSLVKALQMAQQNFVITDASLPDNPIVYASRGFLTLTGYSLDQILGRNCRFLQGPETDPRAVDKIRNAITKGVDTSVCLLNYRQDGTTFWNLFFVAGLRDSKGNIVNYVGVQSKVSEDYAKLLVNEQNIEYKGVRTSNMLRRKPGGSGVDYPYDVPDYALD
modifications: hRET-VfAU1-LOV
- MAPK pathway activation in response to blue light (MAPK pathway): robust activation

B3: Opto-mFGFR1-R195E: Opto-mFGFR1 with charge inversion mutation R195E that prevents kinase domain dimer formation (protein)
chain: MGSSKSKPKDPSQRLDMKSGTKKSDFHSQMAVHKLAKSIPLRRQVTVSADSSASMNSGVLLVRPSRLSSSGTPMLAGVSEYELPEDPRWELPRDRLVLGKPLGEGCFGQVVLAEAIGLDKDKPNRVTKVAVKMLKSDATEKDLSDLISEMEMMKMIGKHKNIINLLGACTQDGPLYVIVEYASKGNLREYLQAREPPGLEYCYNPSHNPEEQLSSKDLVSCAYQVARGMEYLASKKCIHRDLAARNVLVTEDNVMKIADFGLARDIHHIDYYKKTTNGRLPVKWMAPEALFDRIYTHQSDVWSFGVLLWEIFTLGGSPYPGVPVEELFKLLKEGHRMDKPSNCTNELYMMMRDCWHAVPSQRPTFKQLVEDLDRIVALTSNQEYLDLSIPLDQYSPSFPDTRSSTCSSGEDSVFSHEPLPEEPCLPRHPTQLANSGLKRRVETGPDYSLVKALQMAQQNFVITDASLPDNPIVYASRGFLTLTGYSLDQILGRNCRFLQGPETDPRAVDKIRNAITKGVDTSVCLLNYRQDGTTFWNLFFVAGLRDSKGNIVNYVGVQSKVSEDYAKLLVNEQNIEYKGVRTSNMLRRKTGGSGVDYPYDVPDYALD
- MAPK pathway activation in response to blue light (MAPK pathway): no MAPK pathway activation

B4: mFGFR1-SyCP1-PHY: chimeric receptor of mFGFR1 catalytic domain and SyCP1-PHY, SEQ ID NO: 66 (protein)
chain: MGSSKSKPKDPSQRLDMKSGTKKSDFHSQMAVHKLAKSIPLRRQVTVSADSSASMNSGVLLVRPSRLSSSGTPMLAGVSEYELPEDPRWELPRDRLVLGKPLGEGCFGQVVLAEAIGLDKDKPNRVTKVAVKMLKSDATEKDLSDLISEMEMMKMIGKHKNIINLLGACTQDGPLYVIVEYASKGNLREYLQARRPPGLEYCYNPSHNPEEQLSSKDLVSCAYQVARGMEYLASKKCIHRDLAARNVLVTEDNVMKIADFGLARDIHHIDYYKKTTNGRLPVKWMAPEALFDRIYTHQSDVWSFGVLLWEIFTLGGSPYPGVPVEELFKLLKEGHRMDKPSNCTNELYMMMRDCWHAVPSQRPTFKQLVEDLDRIVALTSNQEYLDLSIPLDQYSPSFPDTRSSTCSSGEDSVFSHEPLPEEPCLPRHPTQLANSGLKRRVETGATTVQLSDQSLRQLETLAIHTAHLIQPHGLVVVLQEPDLTISQISANCTGILGRSPEDLLGRTLGEVFDSFQIDPIQSRLTAGQISSLNPSKLWARVMGDDFVIFDGVFHRNSDGLLVCELEPAYTSDNLPFLGFYHMANAALNRLRQQANLRDFYDVIVEEVRRMTGFDRVMLYRFDENNHGDVIAEDKRDDMEPYLGLHYPESDIPQPARRLFIHNPIRVIPDVYGVAVPLTPAVNPSTNRAVDLTESILRSAYHCHLTYLKNMGVGASLTISLIKDGHLWGLIACHHQTPKVIPFELRKACEFFGRVVFSNISAQEDTETFDYRVQLAEHEAVLLDKMTTAADFVEGLTNHPDRLLGLTGSQGAAICFGEKLILVGETPDEKAVQYLLQWLENREVQDVFFTSSLSQIYPDAVNFKSVASGLLAIPIARHNFLLWFRPEVLQTVNWGGDPNHAYEATQEDGKIELHPRQSFDLWKEIVRLQSLPWQSVEIQSALALKKAIVNLILRQAEETGGSGVDYPYDVPDYALD
modifications: redOpto-mFGFR1
- MAPK pathway activation in response to red light (MAPK pathway): activate the canonical MAPK pathway

B5: NcVV-LOV: LOV domain of N. crassa vivid, residue 37 to 186 with Y50W mutation of Q9C3Y6, SEQ ID NO: 8 (protein, listed as Neurospora crassa)
chain: HTLYAPGGYDIMGWLIQIMNRPNPQVELGPVDTSCALILCDLKQKDTPIVYASEAFLYMTGYSNAEVLGRNCRFLQSPDGMVKPKSTRKYVDSNTINTMRKAIDRNAEVQVEVVNFKKNGQRFVNFLTMIPVRDETGEYRYSMGFQCETE
- Kd (LOV domains; dark state, read-out: Estimated KD, Dark): < 5 µM
- Kd (LOV domains; light state, read-out: Estimated KD, Light): < 0.5 µM

B6: NgPA1-LOV: LOV domain of N. gaditana hypothetical protein NGA_0015702, residue 87 to 228 of K8Z861, SEQ ID NO: 12 (protein, listed as Nannochloropsis gaditana)
chain: PDYTLVKALQTAQQNFVITDPTLPDNPIVYASGGFLSLTGYQMDQILGRNCRFLQGPDTDPAAVDKIRRAIEDGTDGSVCLLNYRADGSTFWNQFFIAALRGADGNIVNYVGVQCKVSEEYASEVLKKEATSSTVAEASSKR
- MAPK pathway activation in response to blue light (MAPK pathway): blue light-induced activation of MAPK signaling with amplitudes similar to that of the original Opto-mFGFR1
- Blue light intensity at which activation is already achieved (MAPK pathway): 0.25 mW/cm^2

B7: OdPA1-LOV: LOV domain of O. danica aureochrome1-like protein, residue 180 to 312 of C5NSW6, SEQ ID NO: 14 (protein, listed as Ochromonas danica)
chain: PDYSLVKALQTAQQNFVISDPSIPDNPIVYASQGFLTLTGYALSEVLGRNCRFLQGPETDPKAVEKVRKGLERGEDTTVVLLNYRKDGSTFWNQLFIAALRDGEGNVVNYLGVQCKVSEDYAKAFLKNEENEK
- MAPK pathway activation in response to blue light (MAPK pathway): blue light-induced activation of MAPK signaling with amplitudes similar to that of the original Opto-mFGFR1
- Blue light intensity at which activation is already achieved (MAPK pathway): 0.25 mW/cm^2
